In the domain aggregation screens of Martell et al. (2025):

Test: soluble fraction after stress (log2 fold change); higher = more stays soluble; pooled small domains, quantitative proteomics
Conditions: stress: pH 4
How it was run: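 Custom libraries of small protein domains were pooled and exposed to pH 4. High-throughput quantitative proteomics then measured the log2 fold change in the amount of each domain still soluble, with higher values meaning more stayed soluble. This soluble-fraction fold change stands for aggregation propensity.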

“HMEDQVITQFNMRLIRAVMPQGAPMIVVYEDPKDYPGLFVARLFDGRKSTHLIALADTLEDI” and “HMLDPIQEGKKMLNSRLSGFGITPNTRLMNKLLAAYNISSREEFYGRIGAGIEDLSTLREVLLKGT” are within 0.2 log units of each other in “soluble fraction (log2)” value: -0.351 for the first, -0.182 for the second.

“HMVTVSAVNITPKGHTTVGFTDRSVNPPSNYYLRVGESADGWTVKDADFDDEIATLEKDGVAITLKL” and “HMLDRNKLNELDAYIESFEDKPSHLIMILHRAQGLFGYLPKELQIYVAEKTGVPAAKVYGVVTFYSFFTMK” are within 0.2 log units of each other in “soluble fraction (log2)” value: -0.548 for the first, -0.737 for the second.

First: HMLDLYYDSEDKLLIDMGTGEVIRSFADDKRSLVFDAQAKILFDEDSGDIVYSSYFDKLITDKLASKS
Second: HMRLPNGYGGVTKLSGRRRKPYMVRKTIGWHIDEKTDKKVQDYVVIGYAATKSEALQMLADYNNNPFDV
The “soluble fraction (log2)” value of the first is lower: -1.51 for the first, 0.0101 for the second.

Compared with “HMRGINDLSLVDPQGRIRKDGEQYVVAFGRHKGKEISQIISQDPSYLNWLLSPKGIEDDATRELIRTQYS”, “HMGDFNYVMPDFRGLEAHDVSSFLNRNGFLLRPTEHEVSFTQRPGLILMHYPEPGYPFSRSSPITLVVS” is lower in “soluble fraction (log2)” value: -0.0946 for the first, -0.932 for the second.

Going from “HMIEMAGGYRKGDRVELHSLKGAAEHNGKQGTVVGPQGERVKVLLDDSDSKTLALKVTNLTKLESA” to “HMREIKSNEILLEVENLKNSEFFNDINFNIKKGEIVGFSGLIGAGRTELALTLFGYYKAESGKVIQ”, the “soluble fraction (log2)” value falls from 0.0709 to -0.291.

Going from “HMRQMIIIMQKQAAASSVAAVVEFIRSKGLREHISPGAERTIIGAVGDERVFLPQELESLPQVERAIRVL” to “HMFSWRQHLDHFGFSDEIKKRLADAVFLNDDWNEIDRGVLTKEELLARFIENDPGIEKEIYMVMENIN”, the “soluble fraction (log2)” value falls from -0.85 to -1.78.

“HMTGPSYTTRRVEAAETMMEFLRTFPQAAPFIGDLYVKAQDWPLGEEIGDRLKKMLPPQLQE” and “HMTAEVIYVDVGGEVNQPSVVELTDGSRVTDAIAAAGGLTEKADLTDINRAAFVSDGEKIFIPSQEE” are within 0.2 log units of each other in “soluble fraction (log2)” value: -0.451 for the first, -0.385 for the second.

Compared with “HMASFGDLSGLKRTYPPQGLPDASRIADFLIARNEGDLSVEQVKALERFLFEHPDHERTARLVAATRVPA”, “HMGNKDIEILFSEIVEMRNRIIHGFRITSKQGEQILATKTRKKDGNIQFEITKEYLLDFIKKNEELSDMLY” is lower in “soluble fraction (log2)” value: -0.115 for the first, -1.49 for the second.

Compared with “HMREYVGLSPFNKEKTPSFYVNDEKGQFFDFSSGKNGDLITFLQETERLTFMEAVERLAAEAGLPMPA”, “HMKKPLEYIDVDKREDFPPVPNGMRYIHFYGGTKNYRAYIAPEDISRADFMEQYPEYVPEHN” is higher in “soluble fraction (log2)” value: -0.617 for the first, 0.0177 for the second.

Compared with “HMDMAENEEYKVIMGQAQQLAEQFFPADDNTRRIMLGQLKLENYSLYLLTKQILDEATKGQAAAAN”, “HMNVLGQTAIVRSLRLDATFGEVLLADGGAGLIFKARTHGDETFKKGDRVVLLEYLKDQHAYRVISETDFL” is lower in “soluble fraction (log2)” value: -0.651 for the first, -1.18 for the second.

First: HMQMMDATLKIPPSMGKLRGTLYELNSVTSEDVDENGQLALHVRLSSVDWQRLKKRFDSNLDELIVQKN
Second: HMSVSVNAPMPGNILDVRAKTGESIQKGQVIVILEAMKMENEIMAPQDGKISSINTSKGSTVNSGDLLFTM
The “soluble fraction (log2)” value of the first is higher: -0.427 for the first, -0.693 for the second.

“HMSSLREQVADALRAHLVSGRMRPGVLYSAPKLAAEFGVSATPVREAMLDLVSEGLVDVVRNKGFRVT” and “HMSVDIIPGKADQKVRLIHDPAIVGVTTGGVKTAGPHTLIQIELGPNERPYKRLSLLELIPEG” are within 0.2 log units of each other in “soluble fraction (log2)” value: 0.018 for the first, 0.00535 for the second.

“HMKTDFEIDITVKASSLRVVASPGGDELVGTVTRGDRVTQLATPKDGWILIKMTDGRLGYVPESLLLFP” and “HMGLLGTDISAETMIGYFKKIDLGFDEETQEVIVPSWRQDLLRDADIAEEVARFYGYDNIPTTLPSGEST” are within 0.2 log units of each other in “soluble fraction (log2)” value: -0.89 for the first, -0.736 for the second.

Compared with “HMTSRLLTPRQRYVFDTAMKEGFYDVPRRITLTELASVLDVAKSTLSAQLHRIESTVHHAYADDIRRRS”, “HMQAESLTVVRSAELKADRFLDAATLQTLQTGQVVESLRTESGWVQVRIAGQQGWVRAMNVKGA” is lower in “soluble fraction (log2)” value: 0.0724 for the first, -0.569 for the second.

Going from “HMLLNSLIDTLAAEKATVVPGTEVFKLYDTYGFPWELTEEIASERGFTIDHEGFEAAMKEQRERAREARV” to “HMSNETLFEFFEKNISQLTPTLVDNINRSLAVHSKKNVKLAIMIAAKSNVRNWNYISAILNRWEKE”, the “soluble fraction (log2)” value falls from 0.0336 to -1.21.

Compared with “HMNLWIDNTQVINDWTEGASERSGSIYLTAGVKPIKMQYFDSVLNAKAILRWQGPGINKSVVPSSALTPG”, “HMSSQGSLEKGYSALLDGRLDDAALAYGAALAANPMERDALLGLAYVAHSKGRREEAQALYRKVLR” is lower in “soluble fraction (log2)” value: -0.209 for the first, -0.53 for the second.

“HMGLGDLEVVDSIGKIRRDGQQMILAFGRHKGRDVQEVYNEDPRYINWLLSPKGIEDENGRGKVRDYLGIN” and “HMKKLPEKFDYNEISGLRIEAQQKLNEFQPLNIGQASRISGVTPADISVLLVYLEQLKYSNPDLFFKLNPD” are within 0.2 log units of each other in “soluble fraction (log2)” value: -0.678 for the first, -0.743 for the second.

Compared with “HMHKYEYESLNHVNVGSNLKYISTHFGQPKLIKKSKYHENLNFAYYLEKKFILTLILEGDRVNAYTITG”, “HMPASDPNEKQILRFLTEHQVITRKETQALLDVSQSTAGRVLKAMVDNGQIKQLGGSRNTRYELPM” is higher in “soluble fraction (log2)” value: -0.236 for the first, 0.149 for the second.

With “HMKEDNPIVLINLQAKEGEWVFKGTGLPYVGKYHQHKNGEYMIGIGVLNLNHELKPDEIIIPNPNK” the “soluble fraction (log2)” value was 0.0576.
